Measured values published in patent publication US20240182536A1 (MURAL ONCOLOGY, published 2024).
Residue numbers refer to the chain shown, from its start. In names and notes the source's numbering stands.

T1: interleukin 18 binding protein (IL-18BP) (UniProt O95998 31-194)
T1 sequence (looked up): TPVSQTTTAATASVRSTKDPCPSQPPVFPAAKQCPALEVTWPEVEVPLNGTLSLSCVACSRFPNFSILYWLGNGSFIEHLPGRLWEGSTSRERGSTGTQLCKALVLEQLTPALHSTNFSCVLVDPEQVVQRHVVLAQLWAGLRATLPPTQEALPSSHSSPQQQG

T2: IL-18 receptors on HEK-Blue IL-18 reporter cells (UniProt Q13478 19-541; O95256 20-599, limits assumed)
T2 sequence (looked up) 1: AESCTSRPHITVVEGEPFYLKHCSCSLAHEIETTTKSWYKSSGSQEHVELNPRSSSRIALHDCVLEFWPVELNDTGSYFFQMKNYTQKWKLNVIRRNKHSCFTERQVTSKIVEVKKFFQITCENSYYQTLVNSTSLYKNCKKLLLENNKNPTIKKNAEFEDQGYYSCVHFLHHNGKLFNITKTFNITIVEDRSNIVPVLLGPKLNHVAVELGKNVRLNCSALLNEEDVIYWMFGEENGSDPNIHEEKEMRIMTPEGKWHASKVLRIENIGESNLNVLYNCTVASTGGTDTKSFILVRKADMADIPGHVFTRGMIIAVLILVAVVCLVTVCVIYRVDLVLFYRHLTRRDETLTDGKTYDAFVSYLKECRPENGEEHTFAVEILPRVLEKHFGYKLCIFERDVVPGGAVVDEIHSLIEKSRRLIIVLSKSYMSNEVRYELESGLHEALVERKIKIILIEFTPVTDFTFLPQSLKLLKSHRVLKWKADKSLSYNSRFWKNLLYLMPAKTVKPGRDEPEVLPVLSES
T2 sequence (looked up) 2: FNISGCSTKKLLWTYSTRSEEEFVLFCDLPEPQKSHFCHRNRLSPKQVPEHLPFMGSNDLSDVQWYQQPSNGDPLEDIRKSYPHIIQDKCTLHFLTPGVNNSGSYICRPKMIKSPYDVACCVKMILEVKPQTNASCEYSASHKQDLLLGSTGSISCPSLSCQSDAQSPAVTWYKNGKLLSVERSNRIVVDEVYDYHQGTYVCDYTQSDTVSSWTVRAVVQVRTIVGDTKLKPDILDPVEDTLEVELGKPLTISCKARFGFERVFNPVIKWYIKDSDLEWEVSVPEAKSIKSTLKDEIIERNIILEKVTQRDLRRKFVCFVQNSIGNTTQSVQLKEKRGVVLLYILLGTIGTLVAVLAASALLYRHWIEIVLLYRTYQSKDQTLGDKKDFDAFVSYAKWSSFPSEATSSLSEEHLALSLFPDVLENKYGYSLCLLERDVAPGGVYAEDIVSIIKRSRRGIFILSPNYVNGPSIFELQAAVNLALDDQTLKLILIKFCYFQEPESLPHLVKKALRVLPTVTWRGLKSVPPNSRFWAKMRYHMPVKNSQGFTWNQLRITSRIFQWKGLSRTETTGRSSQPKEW

B1: IL-18 variant K53S, S55K (ligand)
chain: YFGKLESKLSVIRNLNDQVLFIDQGNRPLFEDMTDSDMRDNAPRTIFIISMYSDKQPRGMAVTISVKSEKISTLSSENKIISFKEMNPPDNIKDTKSDIIFFQRSVPGHDNKMQFESSSYEGYFLASEKERDLFKLILKKEDELGDRSIMFTVQNED
B2: IL-18 variant K53T, S55A (ligand)
chain: B1 chain with S53T, K55A
B3: IL-18 variant K53T, S55P (ligand)
chain: B1 chain with S53T, K55P
B4: IL-18 variant K53S, S55G (ligand)
chain: B1 chain with K55G
B5: IL-18 variant K53H, S55V (ligand)
chain: B1 chain with S53H, K55V
B6: IL-18 variant K53S, S55Y (ligand)
chain: B1 chain with K55Y

Target: T1, interleukin 18 binding protein (IL-18BP)
Experiment: cell-based or functional assay

Binder | HEK-blue EC50 (pM) + 300 nM BP | Ratio
B1 | 18.1 pM | 0.8
B2 | 140 pM | 2.1
B3 | 133 pM | 1.3
B4 | 103 pM | 3.1
B5 | > 200 pM | 10.1
B6 | 136 pM | 1.9

Target: T2, IL-18 receptors on HEK-Blue IL-18 …
Experiment: cell-based or functional assay

Binder | HEK-blue EC50 (pM) - BP
B1 | 21.8 pM
B2 | 67.4 pM
B3 | 103 pM
B4 | 33.4 pM
B5 | 45.5 pM
B6 | 70 pM
